In the Immune Epitope Database (IEDB):

Legend:
Test in all cases: IEDB peptide-MHC binding, purified MHC/competitive/radioactivity; filed as Kd, often an IC50 or EC50 that approximates it; ≥ and ≤ were set here for values at or beyond the usual limits of such assays
HLA-A*32:01 = molecular target: HLA-A*32:01
HLA-B*18:01 = molecular target: HLA-B*18:01
HLA-B*40:01 = molecular target: HLA-B*40:01
HLA-B*40:02 = molecular target: HLA-B*40:02
HLA-B*44:02 = molecular target: HLA-B*44:02
HLA-B*44:03 = molecular target: HLA-B*44:03
HLA-B*45:01 = molecular target: HLA-B*45:01
HLA-A*01:01 = molecular target: HLA-A*01:01
HLA-A*23:01 = details: source organism: SARS coronavirus Tor2
HLA-A*24:02 = details: source organism: SARS coronavirus Tor2
HLA-A*26:01 = molecular target: HLA-A*26:01
HLA-A*29:02 = molecular target: HLA-A*29:02
HLA-A*30:02 = molecular target: HLA-A*30:02
HLA-A*30:01 = details: source organism: Mammarenavirus guanaritoense
HLA-B*15:01 = details: source organism: Vaccinia virus WR
[1] = source organism: Vaccinia virus WR
[2] = source organism: Lymphocytic choriomeningitis virus (strain Armstrong)
[3] = source organism: SARS coronavirus Tor2
[4] = source organism: Mammarenavirus guanaritoense

Question: KIDFLFFII was tested. Which Kd (HLA-A*32:01; source organism: Vaccinia virus Copenhagen) did it give?
Answer: Its Kd is 1.97 nM.

Question: KSAHFLLIF was tested. Which Kd (HLA-A*32:01; [1]) did it give?
Answer: Its Kd is 0.185 nM.

Question: How did the Kd (HLA-B*18:01; [2]) turn out when LDVLCLSSL was run?
Answer: The Kd was at least 22900 nM.

Question: What about the Kd (HLA-B*40:01; [2]) of the same sequence?
Answer: Its Kd is 6120 nM.

Question: And the Kd (HLA-B*40:02; [2])?
Answer: Its Kd is 43.4 nM.

Question: What about the Kd (HLA-B*44:02; [2]) of the same sequence?
Answer: The Kd was 7760 nM.

Question: And the Kd (HLA-B*44:03; [2])?
Answer: Its Kd is 7540 nM.

Question: And the Kd (HLA-B*45:01; [2])?
Answer: Its Kd is 8170 nM.

Question: LLVWHTWQKQ was tested. Which Kd (HLA-A*32:01; source organism: Dengue virus 3 Martinique/1243/1999) did it give?
Answer: The Kd was at least 23300 nM.

Question: How did the Kd (HLA-A*32:01; [1]) turn out when LTLDIFYLF was run?
Answer: Its Kd is 4.4 nM.

Question: Which Kd (HLA-A*01:01; [3]) does the source give for MEAQFLYLY here?
Answer: The Kd was 1570 nM.

Question: And the Kd (HLA-A*23:01)?
Answer: The Kd was 16.8 µM.

Question: And the Kd (HLA-A*24:02)?
Answer: Its Kd is 9.6 µM.

Question: And the Kd (HLA-A*26:01; [3])?
Answer: Its Kd is 1.93 µM.

Question: What about the Kd (HLA-A*29:02; [3]) of the same sequence?
Answer: Its Kd is 5.98 nM.

Question: And the Kd (HLA-A*30:02; [3])?
Answer: Its Kd is 11.7 nM.

Question: What about the Kd (HLA-B*18:01; [3]) of the same sequence?
Answer: The Kd was 0.292 nM.

Question: And the Kd (HLA-B*40:01; [3])?
Answer: The Kd was 1850 nM.

Question: What about the Kd (HLA-B*40:02; [3]) of the same sequence?
Answer: The Kd was 2220 nM.

Question: And the Kd (HLA-B*44:02; [3])?
Answer: Its Kd is 2.15 nM.

Question: And the Kd (HLA-B*44:03; [3])?
Answer: Its Kd is 0.933 nM.

Question: What about the Kd (HLA-B*45:01; [3]) of the same sequence?
Answer: The Kd was 12.2 nM.

Question: With METDFLELAM as the sequence, how does the Kd (HLA-B*18:01; [3]) read?
Answer: The Kd was 37.6 nM.

Question: And the Kd (HLA-B*40:01; [3])?
Answer: The Kd was 15.6 nM.

Question: And the Kd (HLA-B*40:02; [3])?
Answer: Its Kd is 289 nM.

Question: And the Kd (HLA-B*44:02; [3])?
Answer: Its Kd is 24.3 nM.

Question: And the Kd (HLA-B*44:03; [3])?
Answer: The Kd was 10.9 nM.

Question: And the Kd (HLA-B*45:01; [3])?
Answer: Its Kd is 123 nM.

Question: MILFLKLLI was tested. Which Kd (HLA-A*32:01; [1]) did it give?
Answer: Its Kd is 715 nM.

Question: What does the source list for MLDDLTMGY?
Answer: Kd (HLA-A*01:01; [4]): 1.12 nM; Kd (HLA-A*26:01; [4]): 7.29 µM; Kd (HLA-A*29:02; [4]): 125 nM; Kd (HLA-A*30:01): 12.9 µM; Kd (HLA-A*30:02; [4]): 226 nM; Kd (HLA-A*32:01; [4]): 2140 nM

Question: For MSIMPVLAY, which Kd (HLA-A*32:01; [1]) is on record?
Answer: The Kd was 99.7 nM.

Question: And the Kd (HLA-B*15:01)?
Answer: Its Kd is 1.37 nM.

Question: PDTTYLGPL was tested. Which Kd (HLA-B*18:01; [2]) did it give?
Answer: The Kd was at least 75300 nM.

Question: What about the Kd (HLA-B*40:01; [2]) of the same sequence?
Answer: The Kd was at least 76100 nM.

Question: And the Kd (HLA-B*40:02; [2])?
Answer: The Kd was at least 77200 nM.

Question: And the Kd (HLA-B*44:02; [2])?
Answer: The Kd was at least 77900 nM.

Question: And the Kd (HLA-B*44:03; [2])?
Answer: Its Kd is at least 78100 nM.

Question: What about the Kd (HLA-B*45:01; [2]) of the same sequence?
Answer: The Kd was at least 21900 nM.
